Broadly, the Kd is the equilibrium constant for the complex coming apart.

In data set [1] the target is hPolεCD (insect), catalytic domain of DNA polymerase ε p261, iron-poor (7.3% iron) (human, UniProt Q07864 28-1194). Nature of the data set: BLI; 100 mM NaCl; active enzyme concentration; kon 162 mM-1 s-1, koff 34.2e-3 s-1; EMSA: 20 mM Tris-Hepes pH 7.8, 100 mM NaCl, 2% glycerol, 2 mM TCEP, 0.2 mg/mL BSA, 0.5 uM DNA, 5 min room temperature; BLI: 30 mM Tris-Hepes pH 7.8, 100 or 150. Conditions: protein: recombinant; tags: cleavable N-terminal His-Tev, digested during purification; label: 5'-biotin-TEG on template (strand 1); template 5' overhang 9 nt, 3' overhang 3 nt; primer annealed at 2-fold excess. On the technique in general: In BLI a coated tip is dipped into the sample, and binding shifts an interference pattern.

Data set [2] addresses hPolεCD (E. coli), catalytic domain of DNA polymerase ε p261, CysX [4Fe-4S] cluster (63% iron) (human, UniProt Q07864 28-1194). Nature of the data set: BLI; 100 mM NaCl; active enzyme concentration; kon 252 mM-1 s-1, koff 41.9e-3 s-1; EMSA: 20 mM Tris-Hepes pH 7.8, 100 mM NaCl, 2% glycerol, 2 mM TCEP, 0.2 mg/mL BSA, 0.5 uM DNA, 5 min room temperature; BLI: 30 mM Tris-Hepes pH 7.8, 100 or 150. The conditions noted are these: protein: recombinant; tags: N-terminal His-Sumo, His-tag digested during purification; label: 5'-biotin-TEG on template (strand 1); template 5' overhang 9 nt, 3' overhang 3 nt; primer annealed at 2-fold excess.

Data set [3] has as its target hPolεCDM (C654S/C663S), [4Fe-4S]-deficient (human, UniProt Q07864 28-1194, C654S;C663S). Nature of the data set: EMSA; no mobility effect at 4-fold molar excess over DNA; EMSA: 20 mM Tris-Hepes pH 7.8, 100 mM NaCl, 2% glycerol, 2 mM TCEP, 0.2 mg/mL BSA, 0.5 uM DNA, 5 min room temperature; BLI: 30 mM Tris-Hepes pH 7.8, 100 or 150. Conditions: protein: recombinant; tags: N-terminal His-Sumo, His-tag digested during purification; label: 5'-Cy3; single strand.

Chain of hPolεCDM (C654S/C663S), [4Fe-4S]-deficient (Q07864 28-1194 C654S/C663S): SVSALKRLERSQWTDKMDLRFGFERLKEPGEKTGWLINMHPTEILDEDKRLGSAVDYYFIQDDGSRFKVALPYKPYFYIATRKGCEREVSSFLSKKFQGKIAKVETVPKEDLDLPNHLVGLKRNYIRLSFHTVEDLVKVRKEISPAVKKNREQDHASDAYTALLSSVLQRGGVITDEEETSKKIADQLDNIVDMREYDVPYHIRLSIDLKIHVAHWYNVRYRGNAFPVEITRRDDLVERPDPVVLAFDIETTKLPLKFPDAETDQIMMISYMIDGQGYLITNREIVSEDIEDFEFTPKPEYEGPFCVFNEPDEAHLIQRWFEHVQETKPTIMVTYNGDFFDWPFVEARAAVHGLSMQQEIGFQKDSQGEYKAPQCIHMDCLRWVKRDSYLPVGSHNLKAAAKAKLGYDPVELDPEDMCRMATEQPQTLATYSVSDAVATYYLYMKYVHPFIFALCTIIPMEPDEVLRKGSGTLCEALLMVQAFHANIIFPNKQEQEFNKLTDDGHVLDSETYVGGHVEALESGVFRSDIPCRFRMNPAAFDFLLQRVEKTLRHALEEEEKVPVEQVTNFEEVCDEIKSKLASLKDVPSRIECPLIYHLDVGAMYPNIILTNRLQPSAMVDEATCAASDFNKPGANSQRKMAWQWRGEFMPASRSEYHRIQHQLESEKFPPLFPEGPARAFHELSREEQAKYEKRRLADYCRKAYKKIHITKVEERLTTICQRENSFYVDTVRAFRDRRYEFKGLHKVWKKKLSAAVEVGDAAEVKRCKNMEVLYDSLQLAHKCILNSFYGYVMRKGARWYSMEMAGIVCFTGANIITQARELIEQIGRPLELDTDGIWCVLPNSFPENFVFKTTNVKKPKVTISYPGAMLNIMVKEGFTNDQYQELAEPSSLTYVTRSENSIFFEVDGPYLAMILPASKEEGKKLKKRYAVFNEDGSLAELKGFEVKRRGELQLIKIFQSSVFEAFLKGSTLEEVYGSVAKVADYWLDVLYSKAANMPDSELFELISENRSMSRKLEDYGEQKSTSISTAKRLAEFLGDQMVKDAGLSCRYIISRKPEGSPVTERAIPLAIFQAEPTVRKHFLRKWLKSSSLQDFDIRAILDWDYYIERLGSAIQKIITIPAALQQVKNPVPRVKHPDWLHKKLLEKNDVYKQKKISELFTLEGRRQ
Chain of hPolεCD (insect), catalytic domain of DNA polymerase ε p261, iron-poor (7.3% iron) (Q07864 28-1194): as the sequence (Q07864 28-1194 C654S/C663S) above, with S627C, S636C counted along it
Chain of hPolεCD (E. coli), catalytic domain of DNA polymerase ε p261, CysX [4Fe-4S] cluster (63% iron) (Q07864 28-1194): as the sequence (Q07864 28-1194 C654S/C663S) above, with S627C, S636C counted along it

B1: Octet 23-mer template / 11-mer 3'-ddC primer (dsDNA)
DNA 1: AATACATAAGCGCTCCAGGCAAT
DNA 2: GCCTGGAGCGC
modifications: 3'-dideoxycytidine on primer (strand 2)
As to B1, the Kd in data set [1] was found to be 213 ± 43 nM; in data set [2] it was 167 ± 24 nM.

For the molecule GGACTCCGAGCTGCC (ssDNA) [15-mer Cy3 primer alone], in data set [3], the binding result is “no binding”.

(Values after publication PMC9581978, “The iron-sulfur cluster is essential for DNA binding by human DNA polymerase ε”.)
